B1: TPR t1 (parent)
chain: GACCAAUCUGCCCUCAGAGCUCGAGAACAUCUUCGGAUGCAGAGGAGGCAGGCUUCGGUGGCGCGAUAGCGCCAACGUCCUCAACCUCCAAUGCAUCCCACCACAUGAUGAUGCCUGAAGAGCCUUGGUUUUUUG

Variants of: B1
Assay: polymerase ribozyme fitness, log enrichment relative to wild type (log ratio); higher = more active; in vitro selection for triplet polymerase activity
In short: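 Mutant libraries were PCR-built and transcribed for each subunit of a heterodimeric triplet polymerase ribozyme and selected for one round in triplicate at −7 °C, frozen, before gel excision of extended constructs and streptavidin-bead capture. Input and output libraries were Illumina-sequenced, keeping genotypes with ≥10 input reads and ≥1 read per output. Fitness is a logarithmic ratio of genotype to wild-type enrichment, in base 2, using inverse-variance-weighted replicate averages.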

First: U96A U131C
Second: C97U G113C
The “polymerase ribozyme fitness (log ratio)” value of the first is higher: -1.19 for the first, -2.71 for the second.

Going from U96A C104U C124U to C101A U131C, the “polymerase ribozyme fitness (log ratio)” value falls from 0.864 to -0.88.

First: C94U C102U U126C
Second: A95C U116G
The “polymerase ribozyme fitness (log ratio)” value of the first is lower: -2.66 for the first, -2.17 for the second.

Compared with C94A G117C, C99U C115A is higher in “polymerase ribozyme fitness (log ratio)” value: -4.31 for the first, -3.86 for the second.

Going from U96G G117A A119G to C99U A119G, the “polymerase ribozyme fitness (log ratio)” value falls from 0.491 to -1.65.

First: C94G U130A G135U
Second: C97A C102U
The “polymerase ribozyme fitness (log ratio)” value of the first is higher: -1.4 for the first, -4.94 for the second.

First: C97U U112C A121C
Second: C94A U112G C124G
The “polymerase ribozyme fitness (log ratio)” value of the first is higher: 1.3 for the first, 0.054 for the second.

Compared with C94A C124A U125C U131A, U96A C99A U106G is lower in “polymerase ribozyme fitness (log ratio)” value: -0.191 for the first, -5.31 for the second.

Going from C94A G128A to C94A C102U, the “polymerase ribozyme fitness (log ratio)” value falls from -2.41 to -4.66.

Going from A100G G120U to C97U G122A, the “polymerase ribozyme fitness (log ratio)” value rises from -3.45 to -1.08.

Compared with C99A G122A, A100C U112G is higher in “polymerase ribozyme fitness (log ratio)” value: -5.29 for the first, -0.251 for the second.

First: C101U C124A
Second: A95C C97U C101G
The “polymerase ribozyme fitness (log ratio)” value of the first is higher: 1.17 for the first, -3.36 for the second.

First: C101G G110U
Second: C98A A100U U112A
The “polymerase ribozyme fitness (log ratio)” value of the first is higher: -4.98 for the first, -5.91 for the second.

First: A100C C124A
Second: C97G A103U
The “polymerase ribozyme fitness (log ratio)” value of the first is higher: 0.995 for the first, -5.1 for the second.

First: C94U G113C
Second: C99U G128A U129A
The “polymerase ribozyme fitness (log ratio)” value of the first is higher: -2.26 for the first, -5.76 for the second.

First: C94U G117U
Second: C94U C99U U125A
The “polymerase ribozyme fitness (log ratio)” value of the first is higher: 0.0636 for the first, -3.61 for the second.

C97A U131A and U96C G110C are within 0.2 log units of each other in “polymerase ribozyme fitness (log ratio)” value: -3.97 for the first, -4 for the second.

First: C94U U131A
Second: C101U G107A
The “polymerase ribozyme fitness (log ratio)” value of the first is higher: -0.362 for the first, -4.66 for the second.

Compared with C94U U125A, C94U U125G is lower in “polymerase ribozyme fitness (log ratio)” value: -0.818 for the first, -1.32 for the second.

Compared with A95U U130C, U96A A121C is higher in “polymerase ribozyme fitness (log ratio)” value: -0.986 for the first, 1.1 for the second.

First: U96A A121G
Second: C99U U134C
The “polymerase ribozyme fitness (log ratio)” value of the first is higher: 0.527 for the first, -4.03 for the second.

Going from C101G G127A to C97A A111G, the “polymerase ribozyme fitness (log ratio)” value falls from -2.28 to -5.96.

First: C97A A111U
Second: U96G C114A
The “polymerase ribozyme fitness (log ratio)” value of the first is lower: -5.77 for the first, 0.0255 for the second.

Going from C94U A100G G120U to C94G C114U G128C, the “polymerase ribozyme fitness (log ratio)” value rises from -3.95 to -3.47.

First: U96G A108G G117A
Second: C98U A119U
The “polymerase ribozyme fitness (log ratio)” value of the first is lower: -4.91 for the first, -1.28 for the second.

Compared with C94U A108U C124A, U96C G128U is higher in “polymerase ribozyme fitness (log ratio)” value: -4.49 for the first, -1.67 for the second.

Going from C94G U116C A118C to A95U U109A U130G, the “polymerase ribozyme fitness (log ratio)” value falls from -3.89 to -6.07.

Going from C97U G120U C124A to C101A G127C, the “polymerase ribozyme fitness (log ratio)” value falls from 0.793 to -1.82.

Going from U96C C102U G113C to A100U U112G, the “polymerase ribozyme fitness (log ratio)” value rises from -4.89 to -0.123.

Going from A95U G117C to C101A C104A A121C, the “polymerase ribozyme fitness (log ratio)” value rises from -4.23 to -0.368.

U96G G120U and U96G G120A are within 0.2 log units of each other in “polymerase ribozyme fitness (log ratio)” value: -0.269 for the first, -0.241 for the second.

First: C94A U96A
Second: C101G U112A U116A U126A G127U
The “polymerase ribozyme fitness (log ratio)” value of the first is lower: -6.34 for the first, -2.86 for the second.

First: U96A C124U
Second: C97U U133A
The “polymerase ribozyme fitness (log ratio)” value of the first is higher: 1.03 for the first, -0.824 for the second.

Compared with C94G A100U G120A, C94A G110C G120C is lower in “polymerase ribozyme fitness (log ratio)” value: -0.669 for the first, -6.12 for the second.

C102A C114U and C101G G117A are within 0.2 log units of each other in “polymerase ribozyme fitness (log ratio)” value: -3.69 for the first, -3.52 for the second.

Compared with C101A U112G C115A, C97G C102G A111G is lower in “polymerase ribozyme fitness (log ratio)” value: -0.657 for the first, -6.52 for the second.

Compared with C98U C104U U112A, U96G G113C is lower in “polymerase ribozyme fitness (log ratio)” value: -2.26 for the first, -2.59 for the second.

Compared with A95U G127A, C94U A121G is higher in “polymerase ribozyme fitness (log ratio)” value: -2.95 for the first, 1.59 for the second.

Going from C97G U112G to C94U G110A, the “polymerase ribozyme fitness (log ratio)” value rises from -5.5 to -1.18.

First: U96G G110U
Second: A100U U133A
The “polymerase ribozyme fitness (log ratio)” value of the first is lower: -2.73 for the first, -0.657 for the second.

Going from A100U U133G to A95C G128C, the “polymerase ribozyme fitness (log ratio)” value falls from -0.612 to -2.12.

Compared with C98A C115U C123U, C94U U112A C124G is higher in “polymerase ribozyme fitness (log ratio)” value: -7.67 for the first, 1.39 for the second.

Going from C98A G120U to C99U C101U, the “polymerase ribozyme fitness (log ratio)” value rises from -4.6 to -2.29.

Compared with C99U C101A, C98U A118C is higher in “polymerase ribozyme fitness (log ratio)” value: -4.62 for the first, -4.03 for the second.

Going from C101A G110A to C97U U112A, the “polymerase ribozyme fitness (log ratio)” value rises from -2.55 to 0.716.

A100U U116C and C94A G127C are within 0.2 log units of each other in “polymerase ribozyme fitness (log ratio)” value: -2.35 for the first, -2.37 for the second.

First: C97G C104U
Second: C101G U106A G122A
The “polymerase ribozyme fitness (log ratio)” value of the first is lower: -3.29 for the first, -0.277 for the second.

Compared with C98U A121C U125A U129A, C94G G117A is lower in “polymerase ribozyme fitness (log ratio)” value: -1.75 for the first, -2.51 for the second.

Compared with A100U U106C, C94U U129A is lower in “polymerase ribozyme fitness (log ratio)” value: -0.792 for the first, -1.25 for the second.

Compared with A100C U112C A118G, C101A G117A is lower in “polymerase ribozyme fitness (log ratio)” value: 0.0171 for the first, -2.65 for the second.

Going from C101A G117C to A100C U109A, the “polymerase ribozyme fitness (log ratio)” value falls from -5.15 to -6.83.

Compared with A95C G110A, C98U G117A is lower in “polymerase ribozyme fitness (log ratio)” value: -2.49 for the first, -2.99 for the second.

Compared with C98U G120C, C97U C104A is lower in “polymerase ribozyme fitness (log ratio)” value: -0.208 for the first, -2.32 for the second.

Going from C101U U106C A111C to C97U G127A, the “polymerase ribozyme fitness (log ratio)” value falls from -0.324 to -1.48.

Compared with C98U U125A, A95U U106G G120U is lower in “polymerase ribozyme fitness (log ratio)” value: -1.46 for the first, -2.83 for the second.

First: C97A C123G
Second: C99A C123A
The “polymerase ribozyme fitness (log ratio)” value of the first is higher: -3.19 for the first, -5.64 for the second.

Going from U96A A111G to C101U G122A, the “polymerase ribozyme fitness (log ratio)” value rises from -1.84 to -1.06.

Going from C101G C123U to C98U A105G C114G C115A G135U, the “polymerase ribozyme fitness (log ratio)” value falls from -0.756 to -7.98.

Going from A95G U125A to C97G C123A, the “polymerase ribozyme fitness (log ratio)” value falls from -0.382 to -4.41.

Going from C101G G122A to A95U U96A C101G U106C C124A, the “polymerase ribozyme fitness (log ratio)” value falls from -2.93 to -4.41.

Going from A95G C97U A105U G122U to C99U C123A, the “polymerase ribozyme fitness (log ratio)” value rises from -4.71 to -3.32.

A100C G120A and A100C A121G are within 0.2 log units of each other in “polymerase ribozyme fitness (log ratio)” value: 1.47 for the first, 1.39 for the second.

Going from A100U C123G to A95U, the “polymerase ribozyme fitness (log ratio)” value rises from -1.75 to -0.816.

First: A95C
Second: A95G
The “polymerase ribozyme fitness (log ratio)” value of the first is lower: -0.933 for the first, 0.119 for the second.

Compared with C101U A111C U116G, C98U U116A is lower in “polymerase ribozyme fitness (log ratio)” value: -2.46 for the first, -4.71 for the second.

Going from C101U C123A to U96C C102U G110A G122U, the “polymerase ribozyme fitness (log ratio)” value falls from 0.0488 to -6.13.

First: C99U C114U
Second: C94G G110A
The “polymerase ribozyme fitness (log ratio)” value of the first is lower: -4.12 for the first, -2.23 for the second.

Compared with U96A A119U, C102A G113A is lower in “polymerase ribozyme fitness (log ratio)” value: -1.13 for the first, -2.68 for the second.

Going from C101G C102U G117A to C98U C115A, the “polymerase ribozyme fitness (log ratio)” value rises from -7.15 to -2.

Going from C94A C114U to C98G C124U, the “polymerase ribozyme fitness (log ratio)” value falls from -2.56 to -5.51.

First: C97U C114G
Second: C97U C114U
The “polymerase ribozyme fitness (log ratio)” value of the first is lower: -3.36 for the first, -2.99 for the second.

First: C97U C114A
Second: C99U A111C
The “polymerase ribozyme fitness (log ratio)” value of the first is higher: -1.76 for the first, -2.83 for the second.

First: C99U A111G
Second: C94A U109A
The “polymerase ribozyme fitness (log ratio)” value of the first is higher: -2.23 for the first, -5.96 for the second.

Going from C98U G110U to U96A C123U, the “polymerase ribozyme fitness (log ratio)” value rises from -2.66 to -0.01.

First: U96G G110U G120U U132C
Second: C101U A105C C114A
The “polymerase ribozyme fitness (log ratio)” value of the first is higher: -4.08 for the first, -6.11 for the second.

Going from C101A A105C A118U to C101U, the “polymerase ribozyme fitness (log ratio)” value rises from -4.79 to -0.0389.

First: C101A
Second: C101G
The “polymerase ribozyme fitness (log ratio)” value of the first is higher: -1.14 for the first, -1.66 for the second.

Going from A95G U112A A119U to U96A U133G, the “polymerase ribozyme fitness (log ratio)” value falls from 0.842 to -0.674.

Compared with C101A C114U, C101A C114A is higher in “polymerase ribozyme fitness (log ratio)” value: -2.99 for the first, -2.19 for the second.

First: C94G C115A
Second: C101G C102G G110C
The “polymerase ribozyme fitness (log ratio)” value of the first is higher: -0.789 for the first, -4.36 for the second.

First: C101U U109C
Second: C97U A121U
The “polymerase ribozyme fitness (log ratio)” value of the first is lower: -3.93 for the first, 1.5 for the second.

First: A100C C102A
Second: A100C U133G
The “polymerase ribozyme fitness (log ratio)” value of the first is lower: -2.98 for the first, -1.12 for the second.

Going from C98G U116A C124G to C99U G110C, the “polymerase ribozyme fitness (log ratio)” value falls from -4.52 to -6.69.

With A95G G110U U130G U132A the “polymerase ribozyme fitness (log ratio)” value was -1.43.

Source: the RNAGym collection of RNA variant scans (doi:10.1073/pnas.2313332121)
